Legend:
[1] = molecular target: fibrinogen related-protein 30 (FBN30), insect cell-expressed recombinant (Anopheles gambiae); test: SEC; concentrated Hi5 medium on a Superdex 200 10/300 GL column, PBS pH 7.4, 0.4 mL/min, calibrated with protein standards; FBN30 in the fractions quantified by ELISA with anti-FBN30; octamer of four disulfide-linked homodimers
[2] = molecular target: fibrinogen related-protein 30 (FBN30), insect cell-expressed recombinant (Anopheles gambiae); test: non-reducing and reducing SDS-PAGE with western blot; 12% SDS-PAGE without or with beta-ME of culture medium of transfected Hi5 cells; FBN30 detected with anti-FBN30 antibody; covalent (disulfide) dimer

## fibrinogen related-protein 30 (FBN30), insect cell-expressed recombinant (natural protein)
[1]
  stoichiometry N: 8
[2]
  stoichiometry N: 2
